Experimental data taken from patent publication US20170101470A1 (PROTHENA BIOSCIENCES, published 2017).
Each block holds one binder with its values, some of them ahead of it.

Key:
[1] = molecular target: T1, human MCAM domain 3 hFc construct (human, UniProt P43121 244-321); assay: ForteBio Octet Red, MCAMhFc domains on anti-human IgG Fc sensors, antibody at 5 ug/ml
T1 construct: One of the 'various MCAMhFc domains' loaded on the ForteBio sensors; also called MCAMhFc domain 3
T1 sequence: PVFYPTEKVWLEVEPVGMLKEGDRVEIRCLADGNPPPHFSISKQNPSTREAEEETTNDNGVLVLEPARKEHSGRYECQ
Source text: (§1) The following protocol was used: ForteBio anti-human IgG Fc biosensors were used to immobilize various MCAMhFc domains including full length MCAMhFc protein on to biosensor surface. […] After loading these samples into a black 96 well plate, the Octet Red was programmed as follows: 60 seconds for baseline #1; 180 seconds for loading various domains; 60 seconds for baseline #2; 180 seconds for association of antibody to domain; and 240 seconds for dissociation of antibody from domain.
(§2) Reagents and Supplies Used: [0358] 1. MCAMhFc final concentration @ 5 ug/ml [0359] […] 3. ForteBio anti-human IgG Fc Capture (AHC) biosensors for kinetics experiments, cat#18-5060 [0361] 4. Block 96 well plate from Greiner Bio-one, cat#655209 [0362] 5. ForteBio Octet Red machine [0363] 6. Fresh tissue culture medium, DMEM with 20% FCS, was used as buffer for dilution

[2] = molecular target: T2, human MCAM expressed on CHO cells (full length human MCAM gene) (human, UniProt P43121 24-646); assay: flow cytometry: blocking of recombinant human laminin 411 (20 ug/ml) binding to CHO cells expressing human MCAM
T2 construct: also called hMCAM expressing CHO cells; CD146
T2 chain: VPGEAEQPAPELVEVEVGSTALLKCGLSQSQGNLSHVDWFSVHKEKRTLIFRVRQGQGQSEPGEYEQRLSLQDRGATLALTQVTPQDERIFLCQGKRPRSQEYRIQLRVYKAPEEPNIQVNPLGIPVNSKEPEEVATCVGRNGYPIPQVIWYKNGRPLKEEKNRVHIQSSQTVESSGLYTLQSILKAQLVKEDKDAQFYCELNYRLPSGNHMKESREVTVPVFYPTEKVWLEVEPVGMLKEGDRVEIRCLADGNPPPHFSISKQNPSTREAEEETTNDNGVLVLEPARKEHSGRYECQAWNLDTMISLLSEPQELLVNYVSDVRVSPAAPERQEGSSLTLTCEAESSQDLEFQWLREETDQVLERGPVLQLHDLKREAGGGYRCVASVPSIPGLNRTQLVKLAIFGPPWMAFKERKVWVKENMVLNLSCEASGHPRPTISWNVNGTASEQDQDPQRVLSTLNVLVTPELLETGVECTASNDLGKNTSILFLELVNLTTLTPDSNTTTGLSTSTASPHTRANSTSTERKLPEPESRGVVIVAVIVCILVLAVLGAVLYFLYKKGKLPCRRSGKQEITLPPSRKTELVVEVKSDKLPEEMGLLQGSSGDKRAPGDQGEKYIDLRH
Experimental: The 87 independent mouse fusion clones and 26 independent rat fusion clones described in Example 1 above as being capable of (i) binding to human MCAM, and (ii) blocking the interaction between human MCAM and the α-4 chain of laminin were further characterized as follows. First, IC50 quantitation for the ability of the monoclonal antibody to block the binding of human MCAM to the α-4 chain of laminin was determined as follows. CHO cells expressing human MCAM were incubated with an anti-human MCAM antibody (at various concentrations) for 30 minutes at 4 degrees Celsius. […] Unbound laminin was then washed away, and the laminin bound to the surface of the cells was detected with fluorescently labeled anti-laminin antibodies. After washing, the amount of laminin bound to the surface was detected by flow cytometry, and IC50s were calculated based on the mean fluorescent intensity.
Amino acid and nucleic acid sequences of the heavy and light chains of these antibodies, and their hypervariable regions, are provided in SEQ ID NOs:29-92. […] As such, each of these specific monoclonal antibodies was very capable of binding to human MCAM and inhibiting the interaction of cell-expressed human MCAM with its α-4 laminin binding ligand.

[3] = molecular target: T3, human MCAM-Fc protein (extracellular domain of human MCAM fused to human IgG) (human, UniProt P43121 24-559); assay: summary sentence of Example 3 (ForteBio, MCAMhFc)
T3 construct: also called hMCAM-Fc; MCAMhFc
T3 chain: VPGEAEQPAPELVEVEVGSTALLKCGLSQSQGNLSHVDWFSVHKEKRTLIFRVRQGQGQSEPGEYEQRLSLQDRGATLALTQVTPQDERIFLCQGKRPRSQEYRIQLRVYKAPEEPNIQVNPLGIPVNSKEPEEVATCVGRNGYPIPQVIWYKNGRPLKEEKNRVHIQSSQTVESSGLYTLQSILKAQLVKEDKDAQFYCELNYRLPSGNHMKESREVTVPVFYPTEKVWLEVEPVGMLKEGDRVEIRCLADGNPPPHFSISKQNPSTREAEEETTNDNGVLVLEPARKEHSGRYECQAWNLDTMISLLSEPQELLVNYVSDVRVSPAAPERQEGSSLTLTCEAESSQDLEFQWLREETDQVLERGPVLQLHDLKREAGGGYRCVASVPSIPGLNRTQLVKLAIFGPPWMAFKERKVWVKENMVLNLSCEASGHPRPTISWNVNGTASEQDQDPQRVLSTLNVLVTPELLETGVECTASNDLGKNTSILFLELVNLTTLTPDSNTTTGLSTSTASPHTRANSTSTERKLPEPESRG
Source text: as §1, §2

[4] = molecular target: T4, human MCAM domain 1 hFc construct (human, UniProt P43121 19-129); assay: ForteBio Octet Red, MCAMhFc domains on anti-human IgG Fc sensors
T4 construct: One of the 'various MCAMhFc domains' loaded on the ForteBio sensors; also called MCAMhFc domain 1
T4 sequence: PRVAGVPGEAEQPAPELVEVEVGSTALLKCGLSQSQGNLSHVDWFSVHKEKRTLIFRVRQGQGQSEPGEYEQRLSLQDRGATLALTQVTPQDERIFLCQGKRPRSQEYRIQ
Source text: as §1, §2

[5] = molecular target: T5, human MCAM domains 1 and 2 hFc construct (human, UniProt P43121 19-242); assay: as above
T5 construct: One of the 'various MCAMhFc domains' loaded on the ForteBio sensors
T5 sequence: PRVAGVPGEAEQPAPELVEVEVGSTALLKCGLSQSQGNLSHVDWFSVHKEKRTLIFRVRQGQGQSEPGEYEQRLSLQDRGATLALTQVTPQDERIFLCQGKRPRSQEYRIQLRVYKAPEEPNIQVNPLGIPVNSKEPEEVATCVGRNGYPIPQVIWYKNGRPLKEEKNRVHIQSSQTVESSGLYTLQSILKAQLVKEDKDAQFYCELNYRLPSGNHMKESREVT
Source text: as §1, §2

[6] = molecular target: T6, human MCAM domain 2 hFc construct (human, UniProt P43121 139-242); assay: as above
T6 construct: One of the 'various MCAMhFc domains' loaded on the ForteBio sensors; also called MCAMhFc domain 2
T6 sequence: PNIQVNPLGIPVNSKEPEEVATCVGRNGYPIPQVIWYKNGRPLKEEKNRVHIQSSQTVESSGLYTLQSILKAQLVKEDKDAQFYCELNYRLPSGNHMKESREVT
Source text: as §1, §2

recombinant hMCAM-His [7] = molecular target: T7, recombinant hMCAM-His (human, UniProt P43121 24-559); assay: ForteBio Octet Red, antibody on anti-human Fc sensors, hMCAMHis analyte, 1:1 fit; affinity relative to rodent 2120, Expt. #1
T7 chain: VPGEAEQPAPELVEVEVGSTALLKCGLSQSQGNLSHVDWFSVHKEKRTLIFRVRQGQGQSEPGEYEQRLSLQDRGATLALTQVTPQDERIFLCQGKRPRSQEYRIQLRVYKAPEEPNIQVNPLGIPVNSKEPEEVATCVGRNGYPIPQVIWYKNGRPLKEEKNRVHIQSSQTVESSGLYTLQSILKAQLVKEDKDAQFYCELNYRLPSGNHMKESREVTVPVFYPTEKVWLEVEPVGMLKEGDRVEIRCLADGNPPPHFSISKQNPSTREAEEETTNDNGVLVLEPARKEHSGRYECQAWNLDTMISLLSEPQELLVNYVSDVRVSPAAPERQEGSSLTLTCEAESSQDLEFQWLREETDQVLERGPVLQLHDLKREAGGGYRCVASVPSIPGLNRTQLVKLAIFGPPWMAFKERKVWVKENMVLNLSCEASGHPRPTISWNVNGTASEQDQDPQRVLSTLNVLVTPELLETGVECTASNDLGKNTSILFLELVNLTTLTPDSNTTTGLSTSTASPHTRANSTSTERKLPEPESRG
Experimental: The affinities were measured using the ForteBio Octet Red. Anti-human Fc sensors were used to capture the humanized antibodies, and several concentrations of hMCAMHis analyte were used to determine the affinity using a 1:1 fitting model.

recombinant hMCAM-His [8] = molecular target: T7, recombinant hMCAM-His; assay: competitive ELISA on coated hMCAM-His, competitor biotinylated rodent or chimeric 2120; IC50 relative to rodent 2120, Expt. #1
Experimental: The apparent affinities of the humanized antibodies were compared to the parental rodent or chimeric antibody in a competitive ELISA according to the following protocol: ELISA plates were coated with recombinant hMCAM-His, and blocked with casein buffer to prevent non-specific binding. Biotinylated rodent or chimeric antibody was added at a subsaturating concentration, in the presence or absence of 3× increasing concentrations of unlabeled competitor (humanized antibody, rodent, or chimeric). After washing to remove unbound antibody, streptavidin HRP was added to allow detection of the biotinylated antibody. The ELISA was developed with TMB substrate and the OD450 was measured. The IC50 of the unlabeled competitor was determined using the GraphPad Prism5 software.

laminin α-4 = laminin α-4 (UniProt Q16363 25-1823); assay: FACS on MCAM mutants displayed on mammalian cells
Sequence of laminin α-4 (Q16363 25-1823): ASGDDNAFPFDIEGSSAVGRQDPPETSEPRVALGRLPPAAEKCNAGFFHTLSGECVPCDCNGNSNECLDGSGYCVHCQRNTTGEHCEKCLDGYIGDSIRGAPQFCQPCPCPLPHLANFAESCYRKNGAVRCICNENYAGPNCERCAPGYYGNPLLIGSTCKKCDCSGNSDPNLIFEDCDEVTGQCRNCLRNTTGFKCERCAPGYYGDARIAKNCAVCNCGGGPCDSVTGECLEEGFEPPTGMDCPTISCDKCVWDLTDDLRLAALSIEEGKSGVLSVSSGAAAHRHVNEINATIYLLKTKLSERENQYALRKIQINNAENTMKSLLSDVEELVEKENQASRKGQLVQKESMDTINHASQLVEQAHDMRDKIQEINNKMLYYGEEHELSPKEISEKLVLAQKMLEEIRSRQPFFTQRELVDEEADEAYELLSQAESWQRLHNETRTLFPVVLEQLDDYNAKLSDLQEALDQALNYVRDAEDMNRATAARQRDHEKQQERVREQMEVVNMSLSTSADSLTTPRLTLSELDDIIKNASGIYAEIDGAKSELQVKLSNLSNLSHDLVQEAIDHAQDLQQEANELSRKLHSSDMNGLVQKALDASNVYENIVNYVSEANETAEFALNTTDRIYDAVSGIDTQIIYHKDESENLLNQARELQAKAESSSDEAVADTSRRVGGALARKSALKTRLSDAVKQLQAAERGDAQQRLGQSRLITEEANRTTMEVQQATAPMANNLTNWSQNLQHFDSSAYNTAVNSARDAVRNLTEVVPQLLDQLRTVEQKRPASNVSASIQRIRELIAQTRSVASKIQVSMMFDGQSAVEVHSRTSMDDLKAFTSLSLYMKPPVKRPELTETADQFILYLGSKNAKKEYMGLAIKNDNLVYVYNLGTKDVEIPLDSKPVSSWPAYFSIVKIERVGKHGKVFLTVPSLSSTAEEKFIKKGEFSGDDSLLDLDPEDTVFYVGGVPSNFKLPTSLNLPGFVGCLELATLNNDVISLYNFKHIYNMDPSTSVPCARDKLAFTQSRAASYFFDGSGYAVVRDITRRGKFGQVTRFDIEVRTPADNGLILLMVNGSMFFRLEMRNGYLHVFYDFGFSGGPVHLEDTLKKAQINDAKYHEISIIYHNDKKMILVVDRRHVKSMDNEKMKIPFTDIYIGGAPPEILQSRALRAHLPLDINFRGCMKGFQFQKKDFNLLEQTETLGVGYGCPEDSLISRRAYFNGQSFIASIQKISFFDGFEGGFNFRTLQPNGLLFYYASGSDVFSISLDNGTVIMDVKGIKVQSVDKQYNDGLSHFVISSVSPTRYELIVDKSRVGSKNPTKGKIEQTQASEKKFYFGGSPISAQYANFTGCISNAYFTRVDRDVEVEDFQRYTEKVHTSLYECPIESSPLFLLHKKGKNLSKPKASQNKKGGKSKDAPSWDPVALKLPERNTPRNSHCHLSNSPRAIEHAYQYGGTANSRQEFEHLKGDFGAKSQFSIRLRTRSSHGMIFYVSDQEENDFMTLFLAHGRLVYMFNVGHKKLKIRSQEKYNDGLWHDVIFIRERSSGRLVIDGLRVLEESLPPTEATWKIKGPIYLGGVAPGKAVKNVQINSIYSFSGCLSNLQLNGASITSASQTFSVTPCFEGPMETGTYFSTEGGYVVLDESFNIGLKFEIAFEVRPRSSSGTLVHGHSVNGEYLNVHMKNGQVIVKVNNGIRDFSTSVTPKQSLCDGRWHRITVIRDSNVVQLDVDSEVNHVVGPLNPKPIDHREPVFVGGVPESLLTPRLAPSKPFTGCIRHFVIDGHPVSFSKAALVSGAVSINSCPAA

B1: mouse anti-human MCAM monoclonal antibody clone 1749.1.3 (antibody, V domains shown)
VH: DVKLVESGGDLVKPGGSLKLSCAASGFTFSSYIMSWVRQTPEKRLEWVATISSGGSSTYYPDSVKGRFTISRDNAKNTLYLQMSSLKSEDTAMYYCTRDDDYDVKVFAYWGQGTLVTVSA
VL: DIVMSQSPSSLAVSAGEKVTMNCKSSRSLLNSRIRKNYLAWYQQKPGQSPKLLIYWASTRESGVPDRFTGSGSGTDFTLTISSVQAEDLAVYYCKQSYNLLTFGAGTKLELK
notes: Mouse hybridoma antibody
binding result [1]: binds
IC50 [2]: 0.545 µg/mL
binding result [3]: binds
binding result [4]: no binding (tested: 5 ug/ml)
binding result [5]: no binding (tested: 5 ug/ml)
binding result [6]: no binding (tested: 5 ug/ml)

B2: humanized anti-MCAM antibody h2120_VH3 + h2120_VL3 (antibody, V domains shown)
VH: QVTLKESGPVLVKPTETLTLTCTVSGFSLTSSGVSWVRQPPGKALEWIAAISSGGTTYYNSAFKSRLTISRDTSKSQVVLTMTNMDPVDTATYYCARRYGYGWYFDFWGQGTLVTVSS
VL: DIQMTQSPSSLSASVGDRVTINCKASQNIYNSLAWYQQKPGKAPKVLIFNANSLQTGIPSRFSGSGSGTDFTLTISSLQPEDFATYYCQQFYSGYTFGQGTKLEIK
notes: Human IgG1 / human kappa; also called h2120VH3VL3; N-S deamidate VH + conservative VL
Fold over rodent (Forte) (recombinant hMCAM-His [7]): 16.1 fold
Fold over rodent (ELISA) (recombinant hMCAM-His [8]): 3.47 fold

The next lines start with the values.

binding result (laminin α-4): no binding
B3: human MCAM I141A mutant displayed on mammalian cells (Example 5) (receptor)
chain: VPGEAEQPAPELVEVEVGSTALLKCGLSQSQGNLSHVDWFSVHKEKRTLIFRVRQGQGQSEPGEYEQRLSLQDRGATLALTQVTPQDERIFLCQGKRPRSQEYRIQLRVYKAPEEPNAQVNPLGIPVNSKEPEEVATCVGRNGYPIPQVIWYKNGRPLKEEKNRVHIQSSQTVESSGLYTLQSILKAQLVKEDKDAQFYCELNYRLPSGNHMKESREVTVPVFYPTEKVWLEVEPVGMLKEGDRVEIRCLADGNPPPHFSISKQNPSTREAEEETTNDNGVLVLEPARKEHSGRYECQAWNLDTMISLLSEPQELLVNYVSDVRVSPAAPERQEGSSLTLTCEAESSQDLEFQWLREETDQVLERGPVLQLHDLKREAGGGYRCVASVPSIPGLNRTQLVKLAIFGPPWMAFKERKVWVKENMVLNLSCEASGHPRPTISWNVNGTASEQDQDPQRVLSTLNVLVTPELLETGVECTASNDLGKNTSILFLELVNLTTLTPDSNTTTGLSTSTASPHTRANSTSTERKLPEPESRGVVIVAVIVCILVLAVLGAVLYFLYKKGKLPCRRSGKQEITLPPSRKTELVVEVKSDKLPEEMGLLQGSSGDKRAPGDQGEKYIDLRH
notes: construct and any tag not described

binding result (laminin α-4): no binding
B4: human MCAM D216A mutant displayed on mammalian cells (Example 5) (receptor)
chain: VPGEAEQPAPELVEVEVGSTALLKCGLSQSQGNLSHVDWFSVHKEKRTLIFRVRQGQGQSEPGEYEQRLSLQDRGATLALTQVTPQDERIFLCQGKRPRSQEYRIQLRVYKAPEEPNIQVNPLGIPVNSKEPEEVATCVGRNGYPIPQVIWYKNGRPLKEEKNRVHIQSSQTVESSGLYTLQSILKAQLVKEAKDAQFYCELNYRLPSGNHMKESREVTVPVFYPTEKVWLEVEPVGMLKEGDRVEIRCLADGNPPPHFSISKQNPSTREAEEETTNDNGVLVLEPARKEHSGRYECQAWNLDTMISLLSEPQELLVNYVSDVRVSPAAPERQEGSSLTLTCEAESSQDLEFQWLREETDQVLERGPVLQLHDLKREAGGGYRCVASVPSIPGLNRTQLVKLAIFGPPWMAFKERKVWVKENMVLNLSCEASGHPRPTISWNVNGTASEQDQDPQRVLSTLNVLVTPELLETGVECTASNDLGKNTSILFLELVNLTTLTPDSNTTTGLSTSTASPHTRANSTSTERKLPEPESRGVVIVAVIVCILVLAVLGAVLYFLYKKGKLPCRRSGKQEITLPPSRKTELVVEVKSDKLPEEMGLLQGSSGDKRAPGDQGEKYIDLRH
notes: as for B3
